The values that follow come from the Immune Epitope Database (IEDB).

Test [1] concerns the target HLA-A*02:01. The test can be described thus: IEDB peptide-MHC binding, purified MHC/competitive/radioactivity; filed as Kd, often an IC50 or EC50 that approximates it; ≥ and ≤ were set here for values at or beyond the usual limits of such assays.
A further test addresses HLA-B*40:01. The description is as above.
The target in the next test is HLA-B*44:02. The description is as above.
For a further test, the target named is HLA-B*44:03. Described as above.
Test [2] concerns the target HLA-A*02:01. The test can be described thus: IEDB peptide-MHC binding, purified MHC/competitive/fluorescence; filed as Kd, often an IC50 or EC50 that approximates it; ≥ and ≤ were set here for values at or beyond the usual limits of such assays.
For a further test, the target named is HLA-A*01:01. The test can be described thus: IEDB peptide-MHC binding, purified MHC/competitive/radioactivity; filed as Kd, often an IC50 or EC50 that approximates it; ≥ and ≤ were set here for values at or beyond the usual limits of such assays.
A further test addresses HLA-A*26:01. Described as above.
The target of a further test is HLA-A*29:02. Described as above.
The target of a further test is HLA-A*30:01. The description is as above.
A further test has as its target HLA-A*30:02. The test is described as above.
For another test, the target named is HLA-A*32:01. The test is described as above.
The target of another test is HLA-B*07:02. The description is as above.
The target of the next test is HLA-B*35:01. The description is as above.
Another test deals with HLA-B*51:01. The test is described as above.
A further test addresses HLA-B*53:01. The test is described as above.
The target in another test is HLA-B*54:01. The test is described as above.
A further test deals with HLA-B*48:01. Put plainly: IEDB peptide-MHC binding, purified MHC/direct/fluorescence; filed as Kd, often an IC50 or EC50 that approximates it; ≥ and ≤ were set here for values at or beyond the usual limits of such assays.
The mark [3] stands for this setting: source organism: Dengue virus 1 Nauru/West Pac/1974.
Setting [4] is: source organism: Lassa virus Josiah.
[5] abbreviates: source organism: Mammarenavirus brazilense.
[6] abbreviates: source organism: Dengue virus 2 Jamaica/1409/1983.
The mark [7] stands for this setting: source organism: Vaccinia virus WR.
[8] abbreviates: source organism: Lymphocytic choriomeningitis virus (strain WE).
The mark [9] stands for this setting: source organism: Mammarenavirus choriomeningitidis.
Setting [10] is: source organism: Dengue virus 4 Philippines/H241/1956.
[11] abbreviates: source organism: Dengue virus 1 Singapore/S275/1990.
Where [12] appears, read: source organism: Mammarenavirus guanaritoense.

Turning to AACRAAGL, the Kd (commonly the equilibrium constant for the complex coming apart) with HLA-A*02:01 [1] (source organism: Hepatitis C virus (isolate 1)) was no less than 50 µM.
In the case of AEPPFGESYI, the Kd worked out at 0.183 µM with HLA-B*40:01 (setting [3]), 0.596 µM with HLA-B*44:02 (setting [3]) and 0.877 µM in the test with HLA-B*44:03 (setting [3]).
For the sequence ALFYKDGKL, in the test with HLA-A*02:01 [2] (source organism: Variola major virus), the equilibrium dissociation constant (Kd) was 0.533 µM.
ALMEWLKTRPI had a Kd with HLA-A*02:01 [2] (source organism: Influenza A virus (A/swine/Hannover/1/1981(H1N1))) of 0.0169 µM.
Take ATQPGLTSAV: in the test with HLA-A*02:01 [1] (setting [4]), the Kd is no less than 25 µM.
The same measure, in the same setting: with DLFATQPGL the figure was 12.5 µM.
For the sequence DLKPDNILL, the Kd with HLA-A*02:01 [2] (source organism: Plasmodium yoelii yoelii) came out at 0.154 µM.
As to EALRGFLLY, the Kd was 3.73 µM with HLA-A*01:01 (setting [5]); 1.58 µM with HLA-A*26:01 (setting [5]); 0.117 µM with HLA-A*29:02 (setting [5]); 5.72 µM with HLA-A*30:01 (setting [5]); 2.27 µM in the test with HLA-A*30:02 (setting [5]); no less than 60.2 µM with HLA-A*32:01 (setting [5]).
In the case of EEVQVLALEP, the Kd with HLA-B*44:03 (setting [6]) is no less than 23.4 µM.
ELNAELSDKL displayed a Kd in the test with HLA-A*02:01 [2] (setting [7]) of no less than 20 µM.
Consider ELTLTNTSI, for which, in the test with HLA-A*02:01 [1] (setting [4]), the Kd is 12.5 µM.
Consider EPVESCPLM, for which the Kd in the test with HLA-B*07:02 (setting [8]) was 5.1 µM; in the test with HLA-B*35:01 (setting [8]), 0.0267 µM; in the test with HLA-B*51:01 (setting [8]), 1.92 µM; in the test with HLA-B*53:01 (setting [8]), 0.177 µM; with HLA-B*54:01 (setting [8]) it was no less than 78.1 µM.
In the case of FATCGLFAL, the Kd in the test with HLA-B*07:02 (setting [9]) is 8.62 µM; with HLA-B*35:01 (setting [9]) it was 0.736 µM; in the test with HLA-B*51:01 (setting [9]), no less than 27 µM; with HLA-B*53:01 (setting [9]), 8.69 µM; with HLA-B*54:01 (setting [9]), 6.3 µM.
With FRKGSSIGK, the Kd with HLA-B*48:01 (source organism: dengue virus type 1) was no less than 20 µM.
Regarding HPLSINVSGV, the Kd with HLA-B*07:02 (setting [7]) was 3.84 µM; in the test with HLA-B*35:01 (setting [7]), no less than 54.2 µM; with HLA-B*51:01 (setting [7]), no less than 29.6 µM; in the test with HLA-B*53:01 (setting [7]) it was 18.8 µM; with HLA-B*54:01 (setting [7]), 0.12 µM.
As for IEREIPERSW, the Kd in the test with HLA-B*44:02 (setting [10]) was determined as 0.0616 µM; with HLA-B*44:03 (setting [10]) it was 0.649 µM.
Regarding KEIAETQHG, in the test with HLA-B*44:02 (setting [6]), the Kd was determined as 0.0621 µM.
Consider KEISNMLNI, for which the figures for the Kd with HLA-B*40:01 (setting [11]), in the test with HLA-B*44:02 (setting [11]) and with HLA-B*44:03 (setting [11]) were 0.191 µM, 0.0746 µM and 0.0687 µM, respectively.
The sequence KMTLFKSIL showed a Kd in the test with HLA-A*02:01 [2] (setting [7]) of 1.28 µM.
Turning to LEHGSCVTTM, the Kd is 0.0648 µM with HLA-B*40:01 (setting [6]) and 1.08 µM with HLA-B*44:03 (setting [6]).
Regarding LFDVIPVSY, the Kd is 0.613 µM with HLA-A*01:01 (setting [12]); no less than 51.9 µM with HLA-A*26:01 (setting [12]); 0.0673 µM in the test with HLA-A*29:02 (setting [12]); no less than 21.1 µM with HLA-A*30:01 (setting [12]); 1.91 µM in the test with HLA-A*30:02 (setting [12]); 9.75 µM in the test with HLA-A*32:01 (setting [12]).
Regarding LLMDCSGSI, the dissociation constant Kd in the test with HLA-A*02:01 [2] (source organism: Plasmodium falciparum) amounted to 0.0013 µM.
As to LLNATDIAVA, in the test with HLA-A*02:01 [1] (source organism: Human immunodeficiency virus 1), the Kd stood at 0.427 µM.
For LPETLETLLL, the Kd was 11 µM with HLA-B*51:01 (setting [6]) and 0.0376 µM with HLA-B*53:01 (setting [6]).
Regarding LPLPWAAGA, the Kd with HLA-B*51:01 (setting [10]) amounted to 1.42 µM.
For LRWLVERRF, the Kd with HLA-B*48:01 (source organism: West Nile virus) is no less than 20 µM.
As to MLMPRQKI, in the test with HLA-A*02:01 [2] (source organism: Influenza A virus (A/turkey/Wisconsin/1968(H5N9))), the Kd turned out to be 1.53 µM.
MLWTTDKHV gave a dissociation constant Kd in the test with HLA-A*02:01 [2] (source organism: Human alphaherpesvirus 1 strain 17) of 1.29 µM.
